Experimental data published in the supplement of paper PMC9170038.

system: K4 kissing-loop RNA reporter; assay: apparent KD of K4 kissing-loop reporter; higher = weaker reporter binding; settings: Eterna round: R107; input ligand: arginine 13.2 mM
Description: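 RNA-MaP round R107: designed RNA switches with theophylline, tryptophan, arginine or FMN aptamers are transcribed on-chip within common flanks. They are titrated with a labelled K4 kissing-loop RNA reporter in RNA-MaP buffer (100 mM Tris pH 7.5, 80 mM KCl, 4 mM MgCl2), without ligand or with the indicated ligand. Median apparent KD per design.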
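Note: bound reporter read as fluorescence of individual clusters on recovered sequencing chips by microscopy, with normalized cluster intensities fitted with a binding model.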

Sequence | apparent KD of K4 kissing-loop reporter
CCAGGACGAUGAGGAUGAUGAAUUACUGAAGGAGCGCAUAUGGUUGCAGGUAGGUCGCGGUGAACAAGUAUAGUGAUGUUAUGCC [SSArgA.V] | 424 nM
UGGGUUGGAAGUGAUGUUUCUCUAAGUGAUACCAGACAAAAGAAAGUCCCUUGGCAGCACAAUGAUGCCAAGGAAACGGCAUGAU [#16 K4 Theophylline A Same State] | 244 nM
AAGGUCACCACUACAGUGAUGUUGUGGGAGCAGGAUAUGCAGAAAUGCAGAAGGGCUCGCUCCCGGUGACCGAAUGAAACAUUCA [Omei KL FMN A SS A v5] | 636 nM
ACGUCAUAUGUAAUGGUGGUUUCGAUCGAUACCAGUAGCGAGAGUUACCCUUGGCAGCGACAUGAGUGAUGUUCAUGUAUGAAGA [KL-XTheo-A2 #analogue] | 109 nM
UAAGGGUUAUGUCCUCGGUGCGAAGAGCUCCGAGGACCGGUACGGCCGCCACUCGGAAGUUCUGAGUGAGGGAGUGAUGUUCCCU [Skye_Ex_TA] | 291 nM
CUUGAUGUGUCGGCCGCCACUGGUAUAGGCGGACUAUAACGACAUGAGUGAUGUUCAUGUUCGUCUAGGACCGGGACACAUUGUA [Tryp B SS t4] | 97.4 nM

same assay, conditions: Eterna round: R107; input ligand: none

Sequence | apparent KD of K4 kissing-loop reporter
UUAUAUUUUAUAUUUAGAUGAUCUAUAGCACGAGGACCGGUACGGCCGCCACUCGAGUGAUGUUCGAGAGCUAUAGAUCAUCAUU [AK2.2 EXC Tryptophan A] | 148 nM
CCUGGCGAGGUAACGUGGAUAUCUCGUCGCAAGGAUAUCUGGAAACAGAGAAGGUGCUACAUUACCGGCAGUGAUGUUGCUGACC | 426 nM
AAAUAAAUGGCGGCCGCCACUGAACGCCUCCGCGUGGGUAUAUAGUGAUGUUAUAUGGCCGCCAUCAGGACCGGGCCAAAUAAAA [#08 K4 Tryptophan B Same State] | 502 nM
AAGGUCACUACUACAGUGAUGUUGUAGGAGCAGGAUAUGCAGAAAUGCAGAAGGGCUCGCUCCAAGUGACCGAAUGAAACAUUCA [Omei KL FMN A SS A v2] | 607 nM
CAUCUCAUGAAAUGAGAUGUCAUCAGUGAAGGAGCGCUAUUAGCAGCAGGUAGGUCGCACUGAAGCGGAGUGAUGUUCUGUAUGA [Arg A SS t3] | 293 nM
CGCAGUGAUGUUGCGAGUAGCUACAGGGAAGGAGCGCUUUAGUAAGCAGGUAGGUCGCCCACGCAGUGAUGUUGCGUCAUAGGGU [Exclusion Arginine A GF 19] | 108 nM
CGCUGGGCGAGUGAUGUUCGCUCACGUGAUACCAGUGCCAUCCAACACCCUUGGCAGCACGCGGGCAGUGAUGUUGUCCUUAGUG [Exclusion Theophylline A GF8] | 128 nM
UUUCGUUGAAGUGAUACCAGACUUGAAAGUGAUGUUUUCCAAUAAAUUAAAUUAUUAGCUGUCCCUUGGCAGCACAGUUUAUUUA [JR_ExcTheophyB_Sub006] | 301 nM
UAACUGCAGUGAUGUUGCAGAUGUCCUGACUAGGAUAUCAGGAAACUGAGAAGGAGUCCCUUCUAAACAUCACAGAAGGAGGACA [[K1]-[K2]-[F1]'-[F1]-[F2]-[F2]'-[K]'-[F]''_Design2] | 434 nM
GGUCGAGUGAUGUUCGAUGUAGUGCAUUCAGAGGAUAUAGGAUUGGCUAGAAGGCUGAAACCUUCUUCGAGUGAUGUUCGAGGAU [Same State FMN A GF5] | 112 nM
UAACUCUUGCAGUGAUGUUGCAAGUAAGCUCAGGAUAUCAGGAAACUGAGAAGGGAGCAUCCUGAGCUUCUGCAAGAGCUCAGAA [KL-SSFMN-A4] | 184 nM
CGCGUUGGUUGAGAGGUUGGCGCGAAUGAUACCAGUAUAUAAGAAUACCCUUGGCAGCAUAAGAAAGAUAUAGUGAUGUUGUAUA [SSTheophA.I] | 454 nM
AUUUAUUCGUACUUUCAGUGAUGUUGAUAACGAGGACCGGUACGGCCGCCACUCGAUUUGGCGAUUUUGUAUUUUUUAUUCUAUA [JR_SSTryptoA_Sub010] | 510 nM
UGUAUGUGAUUUGAUACCAGACCAUCUUGUGAGAAGUGAGUGAUGUUUAUUUUGGUUUGGGUCCCUUGGCAGCAAAUCGCAUACU [KL-SSTheoB23] | 826 nM
CCAGCAAAGCUGGUCGCCAAACAACGGGCACGAGGACCGGUACGGCCGCCACUCGUGAGGACGAGUGAUGUUCGUUCACGGGCGA | 1690 nM
UGAUACCAGACGGCCGCCACUUCCGCAAGUCAAAGACUUGCCAAGGGAAUCGUCCAGUGAUGUUGGAGGACCGGGUCUGGUAUCU [FiskerMod 4 - Jieux - Exclusion - Tryptophan B] | 1220 nM
UUUUUAUGCAGUGAUGUUGCUAAUAUAACAGAGGAUAUGCAUUAAUGCAGAAGGCUGAAAUACUAUACUUUAAUAUAUUAAAUUU [JR_SSFMNA_Sub015] | 126 nM
GAGCGGUAGAGGCUACCGCUAUUCUGAGAAGGAGCGCAGAUGACUGCAGGUAGGUCGCUUAGAGCUUGCAGUGAUGUUGCAAGUU [Inzarier] | 191 nM
UGGAUAUAGUGAUGUUAUAUAGAGAGGGAUACCAGUUUAGAGAAGAACCCUUGGCAGCCUAAAGAAGUAUCAUUAGAGAAGAAUG [ExTheophyl.An] | 253 nM
ACGUAGUUCUAGGAUACCAGCCAAGGAGCGCAGGACAAAAGUCCUGCCGCCAGUGAUGUUGGCCCUUGGCAGCCUAGAACUACGA [Omei KL Theo B Exc B v1] | 145 nM
CCAUUCUUUUACGAUACCAGUCUAAUAUAUUUAAUCAAAACCCUCGCCGAGUGAUGUUCGGACCCUUGGCAGCGUCUGCGAGAGG [ettyxtkmullin] | 758 nM
